Reference: publication PMC11045668 (Nature chemical biology, 2023)

Biological target: the molecule itself
Assay: SEC

B1: soluble transhydrogenase from E. coli (EcSTH), recombinant, with N-terminal Hisx6-tag and C-terminal FLAG-tag (enzyme, Escherichia coli, UniProt P27306 1-466, looked up)
chain: MPHSYDYDAIVIGSGPGGEGAAMGLVKQGARVAVIERYQNVGGGCTHWGTIPSKALRHAVSRIIEFNQNPLYSDHSRLLRSSFADILNHADNVINQQTRMRQGFYERNHCEILQGNARFVDEHTLALDCPDGSVETLTAEKFVIACGSRPYHPTDVDFTHPRIYDSDSILSMHHEPRHVLIYGAGVIGCEYASIFRGMDVKVDLINTRDRLLAFLDQEMSDSLSYHFWNSGVVIRHNEEYEKIEGCDDGVIMHLKSGKKLKADCLLYANGRTGNTDSLALQNIGLETDSRGQLKVNSMYQTAQPHVYAVGDVIGYPSLASAAYDQGRIAAQALVKGEATAHLIEDIPTGIYTIPEISSVGKTEQQLTAMKVPYEVGRAQFKHLARAQIVGMNVGTLKILFHRETKEILGIHCFGERAAEIIHIGQAIMEQKGGGNTIEYFVNTTFNYPTMAEAYRVAALNGLNRLF
- stoichiometry N: 12
